Patent US20180172684A1

Assays:
[1] = target: mycoplasma pneumonia P30 (purified protein P30Ag produced by expressing amino acids 96-274 with Escherichia coli) (Mycoplasma pneumoniae) (UniProt P75330); test: ELISA, P30Ag coated at 4 ng/mL, antibody 5 ug/mL, anti-mouse IgG-peroxidase
[2] = target: full-length protein mycoplasma pneumonia P30 (amino acids 1-274; SEQ ID NO: 1) (Mycoplasma pneumoniae) (UniProt P75330); test: ELISA, full-length P30 coated, 5 ug/mL P30(a), no peptide (0 point of the peptide 1 series)
[3] = target: full-length protein mycoplasma pneumonia P30 (amino acids 1-274; SEQ ID NO: 1) (Mycoplasma pneumoniae) (UniProt P75330); test: ELISA, full-length P30 coated, 5 ug/mL P30(a), no peptide (0 point of the peptide 2 series)
[4] = target: mycoplasma pneumonia P30 (purified protein P30Ag produced by expressing amino acids 96-274 with Escherichia coli) (Mycoplasma pneumoniae) (UniProt P75330); test: immunochromatography sandwich, P30(a)-gold label and P30(a) detection line, P30Ag 10 pg/mL, no peptide
[5] = target: P30 protein of Mycoplasma pneumoniae as present in Mycoplasma pneumoniae analytes (deactivated Mycoplasma pneumoniae Antigen (FH), Meridian; pharyngeal swabs of infected subjects) (Mycoplasma pneumoniae) (UniProt P75330); test: immunochromatography sandwich (Ex. 1), label P30(a), detection P30(a); pharyngeal swab Subject 1, diluted 20 times
[6] = target: P30 protein of Mycoplasma pneumoniae as present in Mycoplasma pneumoniae analytes (deactivated Mycoplasma pneumoniae Antigen (FH), Meridian; pharyngeal swabs of infected subjects) (Mycoplasma pneumoniae) (UniProt P75330); test: immunochromatography sandwich (Ex. 1), label P30(a), detection P30(a); pharyngeal swab Subject 2, diluted 20 times
[7] = target: mycoplasma pneumonia P30 (purified protein P30Ag produced by expressing amino acids 96-274 with Escherichia coli) (Mycoplasma pneumoniae) (UniProt P75330); test: immunochromatography sandwich (Ex. 3), label P30(a), detection P30(a); analyte P30Ag; Triton X-100/Tween 20 diluent
[8] = target: P30 protein of Mycoplasma pneumoniae as present in Mycoplasma pneumoniae analytes (deactivated Mycoplasma pneumoniae Antigen (FH), Meridian; pharyngeal swabs of infected subjects) (Mycoplasma pneumoniae) (UniProt P75330); test: immunochromatography sandwich (Ex. 2), label P30(a), detection P30(a); pharyngeal swab Subject 1; Triton X-100/Tween 20 diluent
[9] = target: P30 protein of Mycoplasma pneumoniae as present in Mycoplasma pneumoniae analytes (deactivated Mycoplasma pneumoniae Antigen (FH), Meridian; pharyngeal swabs of infected subjects) (Mycoplasma pneumoniae) (UniProt P75330); test: immunochromatography sandwich (Ex. 2), label P30(a), detection P30(a); pharyngeal swab Subject 2; Triton X-100/Tween 20 diluent
[10] = target: P30 protein of Mycoplasma pneumoniae as present in Mycoplasma pneumoniae analytes (deactivated Mycoplasma pneumoniae Antigen (FH), Meridian; pharyngeal swabs of infected subjects) (Mycoplasma pneumoniae) (UniProt P75330); test: immunochromatography sandwich (Ex. 1), label P30(a), detection P30(a); deactivated Mycoplasma pneumoniae (FH); NP-40/MN-811 diluent
[11] = target: P30 protein of Mycoplasma pneumoniae as present in Mycoplasma pneumoniae analytes (deactivated Mycoplasma pneumoniae Antigen (FH), Meridian; pharyngeal swabs of infected subjects) (Mycoplasma pneumoniae) (UniProt P75330); test: immunochromatography sandwich (Ex. 2), label P30(a), detection P30(a); deactivated Mycoplasma pneumoniae (FH); Triton X-100/Tween 20 diluent
[12] = target: antibody P30(a) (Fucal Research product Mp-P30-3-AB); test: immunochromatography competition, 400 ng peptide 2 developed with P30Ag 10 pg/mL, P30(a) label and detection
[13] = target: antibody P30(b) (Fucal Research product Mp-P30-9-AB); test: immunochromatography competition, 400 ng peptide 2 developed with P30Ag 10 pg/mL, P30(b) label and detection
[14] = target: antibody P30(a) (Fucal Research product Mp-P30-3-AB); test: competitive inhibition ELISA, full-length P30 coated, 5 ug/mL P30(a) + peptide 2 at x1 the antibody concentration
[15] = target: antibody P30(b) (Fucal Research product Mp-P30-9-AB); test: competitive inhibition ELISA, full-length P30 coated, 5 ug/mL P30(b) + peptide 2 at x1 the antibody concentration
[16] = target: antibody P30(a) (Fucal Research product Mp-P30-3-AB); test: competitive inhibition ELISA, full-length P30 coated, 5 ug/mL P30(a) + peptide 2 at x10 the antibody concentration
[17] = target: antibody P30(a) (Fucal Research product Mp-P30-3-AB); test: competitive inhibition ELISA, full-length P30 coated, 5 ug/mL P30(a) + peptide 2 at x20 the antibody concentration
[18] = target: antibody P30(a) (Fucal Research product Mp-P30-3-AB); test: competitive inhibition ELISA, full-length P30 coated, 5 ug/mL P30(a) + peptide 2 at x40 the antibody concentration
[19] = target: antibody P30(a) (Fucal Research product Mp-P30-3-AB); test: competitive inhibition ELISA, full-length P30 coated, 5 ug/mL P30(a) + peptide 2 at x80 the antibody concentration
[20] = target: antibody P30(b) (Fucal Research product Mp-P30-9-AB); test: competitive inhibition ELISA, full-length P30 coated, 5 ug/mL P30(b) + peptide 2 at x10 the antibody concentration
[21] = target: antibody P30(b) (Fucal Research product Mp-P30-9-AB); test: competitive inhibition ELISA, full-length P30 coated, 5 ug/mL P30(b) + peptide 2 at x20 the antibody concentration
[22] = target: antibody P30(b) (Fucal Research product Mp-P30-9-AB); test: competitive inhibition ELISA, full-length P30 coated, 5 ug/mL P30(b) + peptide 2 at x40 the antibody concentration
[23] = target: antibody P30(b) (Fucal Research product Mp-P30-9-AB); test: competitive inhibition ELISA, full-length P30 coated, 5 ug/mL P30(b) + peptide 2 at x80 the antibody concentration
[24] = target: antibody P30(a) (Fucal Research product Mp-P30-3-AB); test: competitive inhibition ELISA, full-length P30 coated, 5 ug/mL P30(a) + peptide 2 at x160 the antibody concentration
[25] = target: antibody P30(a) (Fucal Research product Mp-P30-3-AB); test: competitive inhibition ELISA, full-length P30 coated, 5 ug/mL P30(a) + peptide 2 at x320 the antibody concentration
[26] = target: antibody P30(a) (Fucal Research product Mp-P30-3-AB); test: competitive inhibition ELISA, full-length P30 coated, 5 ug/mL P30(a) + peptide 2 at x640 the antibody concentration
[27] = target: antibody P30(b) (Fucal Research product Mp-P30-9-AB); test: competitive inhibition ELISA, full-length P30 coated, 5 ug/mL P30(b) + peptide 2 at x160 the antibody concentration
[28] = target: antibody P30(b) (Fucal Research product Mp-P30-9-AB); test: competitive inhibition ELISA, full-length P30 coated, 5 ug/mL P30(b) + peptide 2 at x320 the antibody concentration
[29] = target: antibody P30(b) (Fucal Research product Mp-P30-9-AB); test: competitive inhibition ELISA, full-length P30 coated, 5 ug/mL P30(b) + peptide 2 at x640 the antibody concentration
[30] = target: antibody P30(a) (Fucal Research product Mp-P30-3-AB); test: competitive inhibition ELISA, full-length P30 coated at 4 ng/mL, 5 ug/mL P30(a) + peptide 2 at 40 times the antibody amount
[31] = target: antibody P30(b) (Fucal Research product Mp-P30-9-AB); test: competitive inhibition ELISA, full-length P30 coated at 10 ng/mL, 5 ug/mL P30(b) + peptide 2 at 40 times the antibody amount

## antibody P30(a) (Fucal Research product Mp-P30-3-AB)
[1]
  absorbance at 450 nm after subtracting the blank: 0.403 Abs
[2]
  Color intensity (Abs): 0.411 Abs
[3]
  Color intensity (Abs): 0.411 Abs
[4]
  Color intensity after 15 min: 251 mAbs
[5]
  Color intensity (mAbs): 41.8 mAbs
[6]
  Color intensity (mAbs): 28.7 mAbs
[7]
  Color intensity (mAbs): 180 mAbs
[8]
  Color intensity (mAbs): 117 mAbs
[9]
  Color intensity (mAbs): 51.7 mAbs
[10]
  Color intensity (mAbs): 273 mAbs
[11]
  Color intensity (mAbs): 490 mAbs

B1: Peptide 2 (SEQ ID NO: 7: …) (peptide)
peptide: PGMAPRPGFPPQPGMAPR
[12]
  Color intensity after 15 min: 96.7 mAbs
[13]
  Color intensity after 15 min: 31.3 mAbs
[14]
  Color intensity (Abs): 0.401 Abs
  Percentage reduction of color intensity (%): 2%
[15]
  Color intensity (Abs): 0.199 Abs
  Percentage reduction of color intensity (%): 4%
[16]
  Color intensity (Abs): 0.341 Abs
  Percentage reduction of color intensity (%): 17%
[17]
  Color intensity (Abs): 0.29 Abs
  Percentage reduction of color intensity (%): 29%
[18]
  Color intensity (Abs): 0.26 Abs
  Percentage reduction of color intensity (%): 37%
[19]
  Color intensity (Abs): 0.199 Abs
  Percentage reduction of color intensity (%): 52%
[20]
  Color intensity (Abs): 0.184 Abs
  Percentage reduction of color intensity (%): 12%
[21]
  Color intensity (Abs): 0.186 Abs
  Percentage reduction of color intensity (%): 11%
[22]
  Color intensity (Abs): 0.163 Abs
  Percentage reduction of color intensity (%): 22%
[23]
  Color intensity (Abs): 0.133 Abs
  Percentage reduction of color intensity (%): 36%
[24]
  Color intensity (Abs): 0.172 Abs
  Percentage reduction of color intensity (%): 58%
[25]
  Color intensity (Abs): 0.16 Abs
  Percentage reduction of color intensity (%): 61%
[26]
  Color intensity (Abs): 0.18 Abs
  Percentage reduction of color intensity (%): 56%
[27]
  Color intensity (Abs): 0.125 Abs
  Percentage reduction of color intensity (%): 40%
[28]
  Color intensity (Abs): 0.11 Abs
  Percentage reduction of color intensity (%): 47%
[29]
  Color intensity (Abs): 0.114 Abs
  Percentage reduction of color intensity (%): 45%
[30]
  percentage reduction of absorbance: > 30%
[31]
  percentage reduction of absorbance: 22%
